These results are taken from PMC8541144, “Synthesis, Characterization and In Vitro Evaluation of Hybrid Monomeric Peptides Suited for Multimodal Imaging by PET/OI: Extending the Concept of Charge—Cell Binding Correlation” (Pharmaceuticals, 2021).

A short description of data set [1]: LogD determination: partition between 1-octanol and phosphate buffer pH 7.4. The protocol: In the following, the lipophilicity of the labeled conjugates was investigated to get a first idea of the potential excretion pathway of the agents during an in vivo application. The logD values were determined by partition experiments between n-octanol and aqueous solution at pH 7.4.
The mixtures were intensively shaken for 5 min on a vibrating plate. After subsequent centrifugation at 13,000 rpm for 5 min, 125 µL were taken from each phase and measured in a γ-counter. The logD values were calculated from three or four independent experiments, each performed in triplicate.

Data set [2] can be described thus: Photophysical properties (absorbance and emission measurements). As to conditions: PBS, 1 × 10^−5 mol × L^−1. The data set is classed as physicochemical. Here is the method: Following the synthesis of the target compounds, their photophysical properties were determined. Here, a possible negative influence of the conjugation of the different MIUs to the corresponding peptidic structures on the absorbance coefficients, or the absorption or emission wavelengths should be ruled out. In Table 2, the results of these evaluations are reported for the MIU-peptide-bioconjugates 7 a-c, 8 a-c and 9 a-c as well as for the MIUs 7-9. As expected, no significant loss or shift of fluorescence properties of the final compounds compared to their imaging units before conjugation was observed. This is in line with the earlier observation for PESIN homodimer-MIU-conjugates where an influence of dye or MIU bioconjugation on fluorescence quantum yields and other photophysical properties could be ruled out.
For HPLC chromatography, a Dionex UltiMate 3000 system was used together with Chromeleon Software (Version 6.80). For semipreparative analyses, a Chromolith (RP-18e, 100–10 mm, Merck, Germany) column was used. For radioanalytical use, a Dionex UltiMate 3000 system equipped with a Raytest GABI Star radioactivity detector was used together with a Chromolith Performance (RP-18e, 100–4.6 mm, Merck, Germany) column. All operations were performed with a flow rate of 4 mL/min using H2O + 0.1% TFA and MeCN + 0.1% TFA as solvents. HR-ESI (high-resolution Electrospray Ionization) and MALDI (Matrix-Assisted Laser Desorption/Ionization) spectra were obtained with Finnigan MAT95Q and Bruker Daltronics Microflex spectrometers, respectively. γ-counting was performed using a 2480 Wizard gamma counter system from Perkin Elmer (Rodgau, Germany). For absorbance and emission measurements, a Tecan Infinite M200 Microplate reader together with a Nunc Micro-Well 96 solid plate from ThermoFisher (Dreieich, Germany) was used. Confocal fluorescence microscopy was performed on a Leica TCS SP8 confocal microscope with lasers at λ = 405, 488, 552 and 638 nm. Overlays of microscopies were generated directly with the operating software or afterwards using FIJI software (V1.50e).

The next data set concerns the target T1, GRPR (Homo sapiens, UniProt P30550).
T1 construct: host or cells: HEK-293 (HEK-GRPR), stably transfected
Kind of data set: Competitive displacement assay on stably GRPR-transfected HEK-293 cells, [125I]I-Tyr4-bombesin as competitor. Format: binding. As to conditions: GRPR-expressing HEK cells, mean ± SD. The protocol: Each compound was evaluated at least three times, each experiment being performed in triplicate. […] The respective cells were harvested and re-suspended in the binding buffer to give a cell concentration of 2 × 10^6/mL. […] Using a Millipore MultiScreen disposable punch and a Millipore MultiScreen punch kit, the filters of the well plate were collected in γ-counter tubes separately and measured by γ-counting.

T1 sequence (P30550 whole entry, species assumed): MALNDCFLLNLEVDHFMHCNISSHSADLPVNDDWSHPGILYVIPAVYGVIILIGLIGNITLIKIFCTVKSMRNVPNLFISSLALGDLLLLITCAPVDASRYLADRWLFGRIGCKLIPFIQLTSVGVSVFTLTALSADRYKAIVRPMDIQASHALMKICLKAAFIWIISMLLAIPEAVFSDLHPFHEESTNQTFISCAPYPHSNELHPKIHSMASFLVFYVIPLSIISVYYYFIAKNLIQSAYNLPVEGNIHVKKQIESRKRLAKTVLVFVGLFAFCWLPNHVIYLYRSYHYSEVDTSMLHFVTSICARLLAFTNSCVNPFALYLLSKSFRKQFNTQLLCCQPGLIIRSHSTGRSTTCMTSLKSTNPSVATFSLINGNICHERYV

One may read the logD as the decadic logarithm of the distribution of all forms, ionised or not, between an organic phase and buffer at a given pH. Higher therefore signals a more lipophilic compound. As to `CSCC[C@H](NC(=O)[C@H](CC(C)C)NC(=O)[C@H](Cc1c[nH]cn1)NC(=O)CNC(=O)[C@@H](NC(=O)[C@H](C)NC(=O)[C@H](Cc1c[nH]c2ccccc12)NC(=O)[C@H](CCC(N)=O)NC(=O)CCOCCOCCOCCOCCNC(=O)CCCN1C(=O)CC(SC[C@H](NC(=O)[C@H](CCCCNC(=O)c2ccc(C3=C(/C=C/C4=[N+](CCCCS(=O)(=O)[O-])c5ccc6ccccc6c5C4(C)C)CCC/C3=C\C=C3\N(CCCCS(=O)(=O)O)c4ccc5ccccc5c4C3(C)C)cc2)NC(=O)CC[C@H](C(=O)O)N2CCN(CC(=O)O)CCN(CC(=O)O)CC2)C(N)=O)C1=O)C(C)C)C(N)=O` (stereo partly drawn) [9 a, BBN7-14-cyanine-NODA-GA], the logD in data set [1] was -1.45 ± 0.06. Besides, the “λmax(abs)” value in data set [2] is 724/800. In addition, in data set [2] (λex = 650 nm), the “Stokes Shift” value came to 9 nm and the “λmax(em)” value amounted to 809 nm.

As a reminder, the IC50 is the concentration at which inhibition is half-maximal. On GRPR, `CSCC[C@H](NC(=O)[C@H](CC(C)C)NC(=O)[C@H](Cc1c[nH]cn1)NC(=O)CNC(=O)[C@@H](NC(=O)[C@H](C)NC(=O)[C@H](Cc1c[nH]c2ccccc12)NC(=O)[C@H](CCC(N)=O)NC(=O)CCOCCOCCOCCOCCNC(=O)CCCN1C(=O)CC(SC[C@H](NC(=O)CNC(=O)CC[C@H](C(=O)O)N2CCN(CC(=O)O)CCN(CC(=O)O)CC2)C(N)=O)C1=O)C(C)C)C(N)=O` (stereo partly drawn) [10 a, BBN7-14-NODA-GA] yielded an IC50 of 19.1 ± 1.44 nM. Further, the logD in data set [1] is -3.78 ± 0.04.
